Positions count from the first letter of the chain named.
B1: IL6R-BP116/IL6R-L (antibody, human IgG1)
heavy: QVQLQESGPGLVKPSETLSLTCAVSGHSISHDHAWSWVRQPPGEGLEWIGFISYSGITNYNPSLQGRVTISRDNSKNTLYLQMNSLRAEDTAVYYCARSLARTTAMDYWGEGTLVTVSSASTKGPSVFPLAPSSKSTSGGTAALGCLVKDYFPEPVTVSWNSGALTSGVHTFPAVLQSSGLYSLSSVVTVPSSSLGTQTYICNVNHKPSNTKVDKKVEPKSCDKTHTCPPCPAPELLGGDSVFLFPPKPKDTLMISRTPEVTCVVVDVSHEDPEVKFNWYVDGVEVHNAKTKPREEQYNSTYRVVSVLTVLHQDWLNGKEYKCKVSNTALPAPIEKTISKAKGQPREPQVYTLPPSRDELTKNQVSLTCLVKGFYPSDIAVEWESNGQPENNYKTTPPVLDSDGSFFLYSKLTVDKSRWQQGNVFSCSVMHEALHNHYTQESLSLSP
light: DIQMTQSPSSLSASVGDRVTITCRASQDISSYLNWYQQKPGKAPKLLIYYTSRLHSGVPSRFSGSGSGTDFTFTISSLQPEDIATYYCQQGNTLPYTFGQGTKVEIK
notes: copies: 2 + 2
B2: IL6R-BP118/IL6R-L (antibody, human IgG1)
heavy: B1 heavy with T328S
light: B1 light
notes: copies: 2 + 2
B3: IL6R-BP119/IL6R-L (antibody, human IgG1)
heavy: B1 heavy with T328M
light: B1 light
notes: copies: 2 + 2
B4: IL6R-BP121/IL6R-L (antibody, human IgG1)
heavy: B1 heavy with T328Q
light: B1 light
notes: copies: 2 + 2
B5: IL6R-BP126/IL6R-L (antibody, human IgG1)
heavy: B1 heavy with T328L
light: B1 light
notes: copies: 2 + 2
B6: IL6R-BP136/IL6R-L (antibody, human IgG1)
heavy: B1 heavy with T328A
light: B1 light
notes: copies: 2 + 2
B7: IL6R-BP142/IL6R-L (antibody, human IgG1)
heavy: B1 heavy with T328N
light: B1 light
notes: copies: 2 + 2
B8: IL6R-BP911/IL6R-L (antibody, human IgG1)
heavy: B1 heavy with T328K, A332K
light: B1 light
notes: copies: 2 + 2
B9: IL6R-BP078/IL6R-L (antibody, human IgG1)
heavy: B1 heavy with T328K, A332M
light: B1 light
notes: copies: 2 + 2
B10: IL6R-BP192/IL6R-L (antibody, human IgG1)
heavy: B1 heavy with E235D, H270D, P273G, Y298D, T328K, A332K
light: B1 light
notes: Anti-human IL-6 receptor human IgG1 variant; copies: 2 + 2
B11: IL6R-BP193/IL6R-L (antibody, human IgG1)
heavy: B1 heavy with E235D, H270D, P273G, T328K, A332K
light: B1 light
notes: as for B10

Each binder was assayed against T1, human FcγRIa (human, UniProt P12314 16-292, limits assumed) (assay: SPR (Biacore), FcγR over captured antibody; amount bound relative to IL6R-BF648/IL6R-L x100).
T1 construct: also called CD64
T1 sequence (P12314 16-292 limits assumed): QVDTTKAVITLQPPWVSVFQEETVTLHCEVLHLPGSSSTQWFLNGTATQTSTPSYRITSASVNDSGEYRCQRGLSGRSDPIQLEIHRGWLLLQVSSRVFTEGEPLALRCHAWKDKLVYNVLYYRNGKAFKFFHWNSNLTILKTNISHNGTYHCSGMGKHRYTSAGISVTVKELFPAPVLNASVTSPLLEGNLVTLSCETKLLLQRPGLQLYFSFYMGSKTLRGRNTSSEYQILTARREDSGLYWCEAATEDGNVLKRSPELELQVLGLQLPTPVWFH

Binder | relative binding
B1 | 110 relative value (IL6R-BF648/IL6R-L = 100)
B2 | 101 relative value (IL6R-BF648/IL6R-L = 100)
B3 | 117 relative value (IL6R-BF648/IL6R-L = 100)
B4 | 118 relative value (IL6R-BF648/IL6R-L = 100)
B5 | 113 relative value (IL6R-BF648/IL6R-L = 100)
B6 | 117 relative value (IL6R-BF648/IL6R-L = 100)
B7 | 98 relative value (IL6R-BF648/IL6R-L = 100)
B8 | 52 relative value (IL6R-BF648/IL6R-L = 100)

Molecular target: T2, human FcγRIIa type R (human, UniProt P12318 36-217)
T2 construct: also called FcγRIIaR; FcγRIIa(R)
T2 chain: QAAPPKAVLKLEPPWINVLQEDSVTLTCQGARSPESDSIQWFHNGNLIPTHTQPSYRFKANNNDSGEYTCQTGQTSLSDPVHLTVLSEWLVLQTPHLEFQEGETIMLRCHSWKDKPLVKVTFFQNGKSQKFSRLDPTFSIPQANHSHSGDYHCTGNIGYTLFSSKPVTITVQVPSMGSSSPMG
Assay: as above

Binder | relative binding
B9 | 101 relative value (IL6R-BF648/IL6R-L = 100)
B1 | 126 relative value (IL6R-BF648/IL6R-L = 100)
B2 | 132 relative value (IL6R-BF648/IL6R-L = 100)
B3 | 181 relative value (IL6R-BF648/IL6R-L = 100)
B4 | 155 relative value (IL6R-BF648/IL6R-L = 100)
B5 | 167 relative value (IL6R-BF648/IL6R-L = 100)
B6 | 159 relative value (IL6R-BF648/IL6R-L = 100)
B7 | 103 relative value (IL6R-BF648/IL6R-L = 100)
B8 | 101 relative value (IL6R-BF648/IL6R-L = 100)

The binders below were run against T3, human FcγRIIIa type V (human, UniProt P08637 17-208, limits assumed) in the same assay as above.
T3 construct: also called FcγRIIIaV; FcγRIIIa(V)
T3 sequence (P08637 other isoform, or with tags, fused parts or gaps limits assumed): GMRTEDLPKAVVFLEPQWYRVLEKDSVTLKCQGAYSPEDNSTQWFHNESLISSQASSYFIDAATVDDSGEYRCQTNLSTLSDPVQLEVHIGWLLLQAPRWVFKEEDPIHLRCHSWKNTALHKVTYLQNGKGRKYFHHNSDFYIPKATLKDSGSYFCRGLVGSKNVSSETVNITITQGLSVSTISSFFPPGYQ

Binder | relative binding
B9 | 91 relative value (IL6R-BF648/IL6R-L = 100)
B1 | 114 relative value (IL6R-BF648/IL6R-L = 100)
B2 | 144 relative value (IL6R-BF648/IL6R-L = 100)
B3 | 145 relative value (IL6R-BF648/IL6R-L = 100)
B4 | 157 relative value (IL6R-BF648/IL6R-L = 100)

Each binder was assayed against T4, human FcγRIIa type H (human, UniProt P12318 36-217) in the same assay as above.
T4 construct: Whole entry named for FcγRIIa allotype H131 (AAH20823.1); also called FcγRIIaH; FcγRIIa(H)
T4 sequence: T2 chain with R133H

Binder | relative binding
B9 | 89 relative value (IL6R-BF648/IL6R-L = 100)
B1 | 110 relative value (IL6R-BF648/IL6R-L = 100)
B2 | 128 relative value (IL6R-BF648/IL6R-L = 100)
B3 | 133 relative value (IL6R-BF648/IL6R-L = 100)
B4 | 135 relative value (IL6R-BF648/IL6R-L = 100)
B5 | 132 relative value (IL6R-BF648/IL6R-L = 100)
B6 | 103 relative value (IL6R-BF648/IL6R-L = 100)
B7 | 97 relative value (IL6R-BF648/IL6R-L = 100)
B8 | 108 relative value (IL6R-BF648/IL6R-L = 100)

The binders below were run against T5, human FcγRIIb (human, UniProt P31994 43-217) in the same assay as above.
T5 construct: also called FcγIIB
T5 sequence: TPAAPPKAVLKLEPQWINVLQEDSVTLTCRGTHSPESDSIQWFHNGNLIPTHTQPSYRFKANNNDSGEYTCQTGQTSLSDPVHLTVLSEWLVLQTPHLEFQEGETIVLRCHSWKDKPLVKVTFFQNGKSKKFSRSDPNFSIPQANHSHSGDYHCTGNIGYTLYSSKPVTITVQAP

Binder | relative binding
B1 | 108 relative value (IL6R-BF648/IL6R-L = 100)
B2 | 104 relative value (IL6R-BF648/IL6R-L = 100)
B3 | 110 relative value (IL6R-BF648/IL6R-L = 100)
B4 | 113 relative value (IL6R-BF648/IL6R-L = 100)
B5 | 103 relative value (IL6R-BF648/IL6R-L = 100)
B6 | 119 relative value (IL6R-BF648/IL6R-L = 100)
B7 | 106 relative value (IL6R-BF648/IL6R-L = 100)
B8 | 119 relative value (IL6R-BF648/IL6R-L = 100)

What follows are binders tested against T6, human FcγRIIb (human, UniProt P31994 43-217) (assay: SPR (Biacore); KD of parent IL6R-B3/IL6R-L for FcγRIIb divided by KD of the variant for FcγRIIb).
T6 construct: also called FcγIIB
T6 sequence: T5 sequence
Text: Furthermore, KD(IIaR)/KD(IIb) and KD(IIaH)/KD(IIb) in the table respectively represent the value obtained by dividing the KD value of each variant for FcγRIIaR by the KD value of each variant for FcγRIIb, and the value obtained by dividing the KD value of each variant for FcγRIIaH by the KD value of each variant for FcγRIIb.

Binder | KD(IIb) of the parent polypeptide/KD(IIb) of the altered polypeptide
B10 | 27.3
B11 | 25.5

From patent publication US20140105889A1 (published 2014)
